Substrate: O=P(O)(O)OP(=O)(O)O
Assay: PPi hydrolysis in inverted membrane vesicles, automatic Pi analyzer, two-site dimer equation
Type: biochemical, Thermotoga maritima
Conditions: 40°C, pH 7.2, 0.1 M MOPS-KOH, 5 mM Mg2+, 10 mM NaCl, first (stronger) site of the dimer, concentration counted as Mg2PPi complex
Excerpt: PPi hydrolysis in inverted membrane vesicles, automatic Pi analyzer, two-site dimer equation on Tm‐mPPase (Thermotoga maritima membrane pyrophosphatase)

B1: Tm‐mPPase (Thermotoga maritima membrane pyrophosphatase) (Thermotoga maritima MSB8) (protein)
chain: MYVAALFFLIPLVALGFAAANFAAVVRKPEGTERMKEISSYIRSGADSFLAHETKAIFKVAIVIAILLMIFTTWQTGVAFLLGAVMSASAGIVGMKMATRANVRVAEAARTTKKIGPALKVAYQGGSVMGLSVGGFALLGLVLVYLIFGKWMGQVDNLNIYTNWLGINFVPFAMTVSGYALGCSIIAMFDRVGGGVYTKAADMAADLVGKTELNLPEDDPRNPATIADNVGDNVGDVAGLGADLLESFVGAIVSSIILASYMFPIYVQKIGENLVHQVPKETIQALISYPIFFALVGLGCSMLGILYVIVKKPSDNPQRELNISLWTSALLTVVLTAFLTYFYLKDLQGLDVVGFRFGAISPWFSAIIGIFSGILIGFWAEYYTSYRYKPTQFLSKSSIEGTGMVISNGLSLGMKSVFPPTLTLVLGILFADYFAGLYGVAIAALGMLSFVATSVSVDSYGPIADNAGGISEMCELDPEVRKITDHLDAVGNTTAAIGKGFAIGSAIFAALSLFASYMFSQISPSDIGKPPSLVLLLNMLDARVIAGALLGAAITYYFSGYLISAVTKAAMKMVDEIRRQAREIPGLLEGKAKPDYNRCIEITSDNALKQMGYPAFIAILTPLVTGFLLGAEFVGGVLIGTVLSGAMLAILTANSGGAWDNAKKYLEAGNLEGYGKGSEPHKALVIGDTVGDPLKDTVGPSLDILIKIMSVVSVIAVSIFKHVHLF
notes: recombinant in E. coli C41(DE3), assayed in inverted membrane vesicles; homodimer, subunit mass 77 kDa
For B1, which Km is on record?
Its Km is 1.41 ± 0.04 µM.

From article PMC9405524, “Pre‐steady‐state kinetics and solvent isotope effects support the “billiard‐type” transport mechanism in Na ^+‐translocating pyrophosphatase” (Protein Science : A Publication of the Protein Society, 2022)
